Test results published in doi:10.1101/207886.

Target: MBP-fused Cas3 (E. coli) (UniProt P38036)
Assay: single-molecule TIRF fluorescence

UniProt P38036, sequence (P38036 whole entry, the tested form may be a part): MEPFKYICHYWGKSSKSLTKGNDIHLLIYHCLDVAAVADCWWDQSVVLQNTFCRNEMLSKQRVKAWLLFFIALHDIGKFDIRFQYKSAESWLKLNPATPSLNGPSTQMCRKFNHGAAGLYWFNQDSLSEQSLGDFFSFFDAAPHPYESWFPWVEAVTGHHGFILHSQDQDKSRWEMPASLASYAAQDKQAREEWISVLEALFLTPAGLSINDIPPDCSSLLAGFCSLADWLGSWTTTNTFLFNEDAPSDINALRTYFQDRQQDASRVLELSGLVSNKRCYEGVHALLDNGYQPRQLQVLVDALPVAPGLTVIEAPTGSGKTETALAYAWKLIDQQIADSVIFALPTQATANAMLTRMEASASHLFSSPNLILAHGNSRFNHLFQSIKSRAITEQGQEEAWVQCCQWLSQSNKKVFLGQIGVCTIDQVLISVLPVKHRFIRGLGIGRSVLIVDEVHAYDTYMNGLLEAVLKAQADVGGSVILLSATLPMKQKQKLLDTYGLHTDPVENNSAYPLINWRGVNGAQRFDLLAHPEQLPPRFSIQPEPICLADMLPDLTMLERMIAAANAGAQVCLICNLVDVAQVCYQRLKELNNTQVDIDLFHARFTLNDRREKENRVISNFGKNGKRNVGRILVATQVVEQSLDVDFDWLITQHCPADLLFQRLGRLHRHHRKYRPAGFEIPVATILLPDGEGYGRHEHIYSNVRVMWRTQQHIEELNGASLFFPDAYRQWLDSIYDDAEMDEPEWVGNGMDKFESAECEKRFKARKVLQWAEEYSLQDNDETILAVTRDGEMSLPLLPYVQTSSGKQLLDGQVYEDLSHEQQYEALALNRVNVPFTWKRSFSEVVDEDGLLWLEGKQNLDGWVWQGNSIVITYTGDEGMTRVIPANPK

Substance: Cascade complex (RNA-guided surveillance complex), bound to dye-labelled target DNA (from UniProt Q46901 1-502)
- dwell-time: 1.63 s
